T1: Gid10^65–284 (S. cerevisiae, UniProt P53242 65-284)
T1 sequence: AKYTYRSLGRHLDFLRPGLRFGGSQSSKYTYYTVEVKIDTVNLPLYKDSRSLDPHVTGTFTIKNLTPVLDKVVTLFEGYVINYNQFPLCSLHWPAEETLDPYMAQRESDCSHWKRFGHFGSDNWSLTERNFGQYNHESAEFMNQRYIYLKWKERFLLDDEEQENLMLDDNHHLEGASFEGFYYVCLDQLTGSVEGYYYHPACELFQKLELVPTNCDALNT

T2: Gid10^57–292 (S. cerevisiae, UniProt P53242 57-292)
T2 sequence: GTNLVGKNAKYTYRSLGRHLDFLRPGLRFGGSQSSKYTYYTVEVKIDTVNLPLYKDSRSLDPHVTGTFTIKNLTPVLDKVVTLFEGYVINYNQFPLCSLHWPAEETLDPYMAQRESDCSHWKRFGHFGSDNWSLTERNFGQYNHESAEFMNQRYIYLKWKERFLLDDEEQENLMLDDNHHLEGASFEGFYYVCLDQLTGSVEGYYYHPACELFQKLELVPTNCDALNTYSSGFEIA


Key:
[1] = target: T1, Gid10^65–284; test: crystal structure
[2] = target: T2, Gid10^57–292; test: ITC

Binder | binding result [1] | Kd [2] [nM]
PFITSRPW [Art2 degron peptide PFITSRPW] | binds | –
PFITSRPVAW [Art2 degron peptide PFITSRPVAW] | – | 1030

— paper PMC9171410 (EMBO Reports, 2022)
